Measured values reported in the DeepSol protein solubility set.

Assay: soluble on expression in E. coli; label from the status in PepcDB or PDB records

Sequence	soluble on expression in E. coli
MGSDKIHHHHHHLCRRLDGLNPNQQALCAENPFSIPFVARGVREAIRECENKFKFERWNCSSRDEVTETRHGKFQDILGKTLRSANKEAAFLNAIMAASIVHSITKGCNTGNLTECGCDSKPGMQRYQAESDPSMSRDQFSWGGCSDNVPHGIRYAKKFLDDWETAQFDKTKNVAHLVRRHNNFVGREAIAQNIRRQCRCHGVSGSCEFKTCWLQMQKFSQVSDLLKKRYDHFAVQVTRKATKRLRRKERTERKIPLRGNEMAYVHRSPSYCEKNLTAGILGTSGRECIHNSYSSESCDLLCCGRGYNTRLEIRQTQCECKFVWCCEVKCKTCTEEVAVHTCK	not soluble
MGSDKIHHHHHHLGNNAPRIIDFADSKGKGIIKYRYASMGAGQASSFQKKFTGKEPVEKIQHYLHVVFKEQLGKLYTAKTHEKMNLLSYYEFDNISAGKLKASIGNVYQGNIEANEFILHANSFPNPLNFYKNDLDTYLKNNNMYAFQSYVHGDLNGANIIIDAQDNVWIIDFFHTHRGHVLKDLVKLENDLLYIFSEMHSESDFQEALKISEVLFAVSDLQASLPDITQTGITKPSFVRVYKTLSYLRSLYSDLVEWDRNPLQVFIAQLRYSMHSLIFDECNQWQKEWALYNSGKFSQIISNKFLETDKLRIDFIKSDKIDAHSLALTILPGRKDYSRDLSEDLKEIKEQQIDCVVSLITKDEMDMYGVPELLDVYKKQGVECLHVPVIDQKIPVKAEIERINAFINAQQKKHKKVLIHCVGGLGRSGLVAACYLKSLGYPSDDAIKIVREARSSRAIESTEQEKFVYDYNERTV	not soluble
MGSDKIHHHHHHLKQKILHIIDSFSTGGAEVLLAGVIPELVDFEHVIVYLTPTKTPILSSDPTIKIVCLNFRSITDATRIIKDLNTIIEQEKPGIIHTHLYFSSLFIRFARTNKINIIQTYHNEYYRIRYPQFSARIKKIGLKLLDRFTMKNAYTVIHVSKAQQLVNDHDVRIKSSAVLYNYVEDQFYQTRKTSSFKGTGKLKIICVGNLKTEKNHILLLHALRQLMHLPIHVTICGEGNDYIMLQKYINRYDLPVTLMGSQKNIHELLGQHDLFVSCSIIEGFGISIAEAMASEIPLIISDISTFKEVTQNKAVFFESRNVASLAEKIEQFYLSPQSAAASVLACKEIAEQYKKSFYLDRLNTLYKK	not soluble
MGSDKIHHHHHHLPKLREDFKMQNKSVFILGASGETGKVLLKEILGQNLFSKVTLIGRRKLTFEEEAYKNVNQEVVDFEKLDVYASAFQGHDVGFCCLGTTRSKAGAEGFVRVDRDYVLKSAELAKAGGCKHFNLLSSRGADKSSSFLYLQVKGEVEAKVEELKFDRLSVFRPGVLLCDRQESRPGEWLARKFFGSLPDSWASGYAVPVVTVVRAMLNNLVSPSSGQMELLENKAILHLGKDRDVPKL	soluble
MGSDKIHHHHHHLPTIEQNRAPPFLAGLFCAIDLERRFLSNGKQKDFIMLDANTAQNPALLTVGYEGTDLRRFLACLEQSGVKTLVDVRERAQSRKKGFSKTALAEALAGIGIRYVHLRDLGDPKPGRDAARAGDYETFRKVFTSHMDTDAAKSALSELDTLAKEDRTCILCFERCHTECHRAIVATYLKELSPYDVVHVEV	not soluble
MGSDKIHHHHHHLRALGYQGRDVEVVALNDAQYLVAACDSCGAIGEKELDAVKVPWRVTGRMTARVALLEVLAVGAVPQMLSIAIANEPLPAGEEIMKGVREELKAMNLLSLPAAVSTEKNMPTEQTGLGITVIGLCDQDKLRIGRARPGNSLFCLGLPKVGTEAADPEDPDILQGIHLIQLLNIPGVYDIIPVGSQGIRGEAEALAQAVGARFGEDSQCRLDINKSAGPSTCLIFTAAEDIELGDFGKLPIHKIGRLEEDGGGGLLTENED	not soluble
MGSDKIHHHHHHLRTNTPTFINIRNSYKIKTIMHFHLSGNAASDLKIVRFEDFSGSADAFRQHWYVHRVTMQRRKHVIVMEESTRYALLFCRVTQPFFKNFPEFFADTLWRHIVSLCAVPTARFGSIQAMTTDMCSENIYHKGLNRSVQAHIRDSFLTLECYLLHEPPINLARQEDVFQMNIRINETPRTRYGEKNYIWSLREFQRLWCEHLGVAAVRG	not soluble
MGSDKIHHHHHHLVGSGGTGAPPPRSSPMTTLYVTQPGSVVRSEGGSLTVWVETEADDPGPNDSPVRRKRLASVEPHRLESLVLLGFTTITANAMRLCMANKIAVSLLDGGGGLAARVVPPEARSADLRLHQYALHLDPPERLIRARAVVTAKLRNAAAVLRGIRSNQASSAALASAITQTEASAEAAAAAVSAESLLGIEGNGAHQYFAGLRTAFVGGIPFLGRAQRPPPDPANSLLSFGYVLLGNRLTGLLEARGVDPCLGFFHDLRPGRPSLALDLLEELRHPVVDRLALRICNLRKIQPQHFEPDAERPGGVKLTVDGRKIFLEEWEGHLARPLREPGVAAEHRLDVHRLLQRQVDRLVSDLRGGEPYRPFRFGTSRPG	not soluble
MGSDKIHHHHHHMAAGHGVRPARVAISLYPGCAQLYLQAQRAGKAVEALETPEAHFSVLESISLEEQMLILRSVLKRSQEQREKDFELMIQAYLSGNLDKVGALDSALGVDGLPAGLWEKIRVKLLDERNMRMAERIAAAASLQPVFVAVGAAHLPGEGGLIDLLSRAGLPYLPSIASDARRRLTFMPHLPLTHARYNSSYFRRMDGLTMADRINLRPLERNDLHFVHKLNNNDTIMRYWFEEPYEAYDELVALYDRHIHDQNERRFIIELDNGELAGLVELVEINYIHRRAEFQIIIAPDYQGRGLAKSATRIAVGYAFRVLNLHKVYLVVDKENQAAIHVYEACGFEVEGRLKEEFFSNGSYRDVLRMRLLQDDYLRHVGPAPVDASVLREWQDQ	not soluble
MGSDKIHHHHHHMAAILPARITKVLPDSIAAEIGFEAGDALVAINGVQPRDLIDYKFLCSDEFLELEVLDASGKTHHIEIEKDYDEDLGLEFETALFDGLIQCNNRCPFCFIDQQPPGKRSSLYLKDDDYRLSFLYGSYLTLTNLPEREWQRIEQMRLSPLYVSVHATEPEVRIRLLKNQRAAQILDQLRWFQARRLQIHAQVVVCPGINDGKHLEQTLRDLASFHDGDVPTVASVAVVPVGLTRFRPEEDELIPVTREKAQEVIAQVRSLTQEFRRQFGSNVAWLADEWFLIAGEELPSEAEYEEYPQIDNGVGSIRLFLKQFAETAAELLPTKINHPKKLTWVVGNAVEKAFQPILKSLNAVEGLEINMCALSSDYWGQTISVTGLITGHDLLLHLKEQDLGGGILLPNVMLKHGELVFLDDMSVEEVAQKLHTKIIPIAGVKELIKTCITDSVSV	not soluble
MGSDKIHHHHHHMAAVGPRTGPGTGAEALALAAELQGEATCSICLELFREPVSVECGHSFCRACIGRCWERPGAGSVGAATRAPPFPLPCPQCREPARPSQLRPNRQLAAVATLLRRFSLPAAAPGEHGSQAAAARAAAARCGQHGEPFKLYCQDDGRAICVVCDRAREHREHAVLPLDEAVQEAKELLESRLRVLKKELEDCEVFRSTEKKESKELLKQMAAEQEKVGAEFQALRAFLVEQEGRLLGRLEELSREVAQKQNENLAQLGVEITQLSKLSSQIQETAQKPDLDFLQEFKSTLSR	not soluble
MGSDKIHHHHHHMAAWRTVVIATSCHLRVRDRQLVIESREGERTQLPLADIGVVIVENPQVTLSAALLSALAQEGTALMSCDSSHLPDGVFAPFGTHSRHTRAARVQAVWSEPFKKRCWQKIVRAKVSSQAEVLRRVGAEDAARRLENLVGKVTSGDTTGVEAQAAQVYWRSLFVNFKRWDGGLDARNGGLNYGYAVLRGALGRAIAGAGLIPAFGLHHAGELNSFNLADDLIEPFRPFVDLLVWGLFLERTGDDPLTREERMRIAQILGESCIMTERYETLLSATQIIARSLVSAGEQKESRRLILPWMGEDDVQGEVYEADGDV	not soluble
MGSDKIHHHHHHMADDETRKYVIPGLERGLTILMALSRSHREMSLAEIVKCVEWPKASVYRAVQTLEYMGFVRRHPSSGLYSLGVSVLRLGFEYVSSLDLVQVGQPVIESLRDRSGCSSHIVIRDGRDVIYVARVSAAGTTTHRVSVGTRLPVHRTSLGRVLLTGMSREAFERLYPDPELPDTRPGAPADREALWQLVQDDRARGYVVGESFFQLGISSIVYPLFTQEGDVAGAISIMVPVHEIPAEDRERLRGYVEDAAMTISEMLGYHDPRARRSDMP	not soluble
